Laboratory results reported in patent US20070003561A1 (published 2007).

B1: Anti-PsaA 7-1G9 (antibody, V domains shown)
VH: QVRLQQWGAGLLKPSETLSLTCAVFGGSFSGFSWSWIRQTPGKGLEWIGEIDYRGSTNYNPSLKSRVTILRDTSRSQFSLKLSSVTAADSAVFYCARGGPRFDYWGQGTLVTVSS
VL: DIQMTQSPSSLSASVGDRVTITCRASQGISSWLAWYQQKPEKAPESLIYVASSLQSGVPSRFSGSGSGTDFTLTISSLQPEDFATYYCQQYNSYPPTFGQGTKVEIK
notes: Fully human monoclonal antibody (HuMAb-Mouse), kappa light chain; also called clone 7-1G9.1
B2: Anti-PsaA 5-9A7 (antibody, V domains shown)
VH: EVQLVESGGGLVQPGGSLRLSCAASGFTFSSFWMSWVRQAPGKGLEWVANIKQDGSEKFYVDSVKGRFTISRDNAKNSLYLQMNSLRAEDTAVYYCARDRITMVRPYYYFYNGLDVWGQGTTVTVSS
VL: EIVLTQSPATLSLSPGERATLSCRASQSVSSYLAWYQQKPGQAPRLLIYDASNRATGIPARFSGSGSGTDFTLTISSLEPEDFAVYYCQQRSNWPPFTFGPGTKVDIK
notes: Fully human monoclonal antibody (HuMAb-Mouse), kappa light chain; also called clone 5-9A7
B3: F(ab′)2 fragment of the anti-PsaA Ab 5-9A7 (other)
VH: B2 VH
VL: B2 VL
notes: F(ab′)2 made by pepsin digestion; also called anti-PsaA F(ab′)2; 5-9A7 F(ab′)2
B4: Anti-PsaA 1-15E5 (antibody, V domains shown)
VH: EVQLVESGGGLVQPGGSLRLSCAASGFTFNIFGMSWVRQAPGKGLEWVANIKQDGSEKYYVDSVKGRFTISRDNAKNSLYLQMNSLRAEDTAVYYCARDRFYYGSGSYYYYYNGMDVWGQGTTVTVSS
VL: EIVLTQSPATLSLSPGERATLSCRASQSVSSYLAWYQQKPGQAPRLLIYDASNRATGIPARFSGSGSGTDFTLTISSLEPEDFAVYYCQQRSNWPLTFGGGTKVEI
notes: Fully human monoclonal antibody (HuMAb-Mouse), kappa light chain; also called clone 1-15E5.2.1; 1-1-15E5

Tests used:
[1] = molecular target: T1, Streptococcus pneumoniae surface adhesin A (PsaA) protein (Streptococcus pneumoniae, UniProt P0A4G2 20-309); assay: whole-bacteria ELISA, strain 14, Ab 0.5 µg/ml
T1 construct: also called Pneumococcal surface adhesin A; recombinant PsaA
T1 sequence: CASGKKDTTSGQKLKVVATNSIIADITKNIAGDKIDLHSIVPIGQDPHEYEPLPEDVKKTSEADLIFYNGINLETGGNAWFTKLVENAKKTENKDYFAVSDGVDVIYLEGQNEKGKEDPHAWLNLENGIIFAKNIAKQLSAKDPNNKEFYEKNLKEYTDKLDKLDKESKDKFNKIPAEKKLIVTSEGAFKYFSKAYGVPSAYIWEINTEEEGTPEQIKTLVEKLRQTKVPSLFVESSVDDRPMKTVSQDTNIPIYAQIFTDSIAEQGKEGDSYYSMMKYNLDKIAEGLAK

[2] = molecular target: T1, Streptococcus pneumoniae surface …; assay: whole-bacteria ELISA, strain R6, Ab 5 µg/ml
[3] = molecular target: T1, Streptococcus pneumoniae surface …; assay: whole-bacteria ELISA, strain R6, Ab 5 ng/ml
[4] = molecular target: T1, Streptococcus pneumoniae surface …; assay: whole-bacteria ELISA, strain R6, Ab 0.5 µg/ml
[5] = molecular target: T1, Streptococcus pneumoniae surface …; assay: whole-bacteria ELISA, strain 8, Ab 0.5 µg/ml
[6] = molecular target: T1, Streptococcus pneumoniae surface …; assay: SPR (Biacore 3000), PsaA amine-coupled on CM5 chip, antibody in flow, 1:1 Langmuir fit
[7] = molecular target: T1, Streptococcus pneumoniae surface …; assay: whole-bacteria ELISA, strain 4, Ab 0.5 µg/ml
[8] = molecular target: T1, Streptococcus pneumoniae surface …; assay: whole-bacteria ELISA, strain R6, Ab 50 ng/ml
[9] = molecular target: T1, Streptococcus pneumoniae surface …; assay: whole-bacteria ELISA, strain 23F, Ab 0.5 µg/ml
[10] = molecular target: T1, Streptococcus pneumoniae surface …; assay: whole-bacteria ELISA, strain 3, Ab 0.5 µg/ml
[11] = molecular target: T1, Streptococcus pneumoniae surface …; assay: whole-bacteria ELISA, strain 9V, Ab 0.5 µg/ml
[12] = molecular target: T1, Streptococcus pneumoniae surface …; assay: whole-bacteria ELISA, strain 7F, Ab 0.5 µg/ml
[13] = molecular target: T1, Streptococcus pneumoniae surface …; assay: whole-bacteria ELISA, strain R6, Ab 0.5 ng/ml
[14] = molecular target: T1, Streptococcus pneumoniae surface …; assay: whole-bacteria ELISA, strain D39, Ab 0.5 µg/ml
[15] = molecular target: T1, Streptococcus pneumoniae surface …; assay: whole-bacteria ELISA, strain 1, Ab 0.5 µg/ml
[16] = molecular target: T1, Streptococcus pneumoniae surface …; assay: whole-bacteria ELISA, strain 6B, Ab 0.5 µg/ml
[17] = molecular target: T1, Streptococcus pneumoniae surface …; assay: whole-bacteria ELISA, strain 12F, Ab 0.5 µg/ml
[18] = molecular target: T2, fusion protein consisting of soluble CD64 linked to the Fc portion of human IgM (human, UniProt P12314 16-292; P01871 106-453, limits assumed); assay: bispecific sandwich ELISA: coated recombinant PsaA, detection with soluble CD64-IgM fusion and AP anti-human IgM
T2 construct: Used as a culture supernatant; also called soluble CD64-IgM fusion protein
T2 sequence (P12314 other isoform, or with tags, fused parts or gaps limits assumed): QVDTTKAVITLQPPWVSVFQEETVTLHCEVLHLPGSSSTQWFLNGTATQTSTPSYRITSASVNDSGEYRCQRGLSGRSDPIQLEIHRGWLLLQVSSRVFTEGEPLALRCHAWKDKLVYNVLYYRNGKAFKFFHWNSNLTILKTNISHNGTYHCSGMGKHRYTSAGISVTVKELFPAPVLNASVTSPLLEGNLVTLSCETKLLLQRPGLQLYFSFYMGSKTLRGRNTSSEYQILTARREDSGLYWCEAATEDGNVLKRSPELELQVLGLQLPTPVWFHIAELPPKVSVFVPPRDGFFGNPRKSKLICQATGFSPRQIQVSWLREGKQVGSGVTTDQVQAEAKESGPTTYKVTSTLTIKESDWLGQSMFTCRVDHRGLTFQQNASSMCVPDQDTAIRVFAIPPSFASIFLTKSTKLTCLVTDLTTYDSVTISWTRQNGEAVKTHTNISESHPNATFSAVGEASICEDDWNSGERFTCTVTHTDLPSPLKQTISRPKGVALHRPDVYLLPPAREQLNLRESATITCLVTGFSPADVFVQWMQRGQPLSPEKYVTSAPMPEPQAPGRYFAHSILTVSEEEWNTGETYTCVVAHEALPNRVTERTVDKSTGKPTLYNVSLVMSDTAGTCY

Row | Binder | ELISA (0.5 µg/ml) (corrected) [1] | R6 ELISA (corrected) [2] | R6 ELISA (corrected) [3] | ELISA (0.5 µg/ml) (corrected) [4] | R6 ELISA (corrected) [4] | ELISA (0.5 µg/ml) (corrected) [5] | Kd [6] | koff [6] | kon [6] | ELISA (0.5 µg/ml) (corrected) [7] | R6 ELISA (corrected) [8] | ELISA (0.5 µg/ml) (corrected) [9] | ELISA (0.5 µg/ml) (corrected) [10] | ELISA (0.5 µg/ml) (corrected) [11] | ELISA (0.5 µg/ml) (corrected) [12] | R6 ELISA (corrected) [13] | ELISA (0.5 µg/ml) (corrected) [14] | ELISA (0.5 µg/ml) (corrected) [15] | ELISA (0.5 µg/ml) (corrected) [16] | ELISA (0.5 µg/ml) (corrected) [17] | further results
1 | B1 | 1.32 | 1.36 | 0.54 | 1.38 | 1.68 | 1.5 | 0.0634 nM | 2.87e-05 s⁻¹ | 435000 M⁻¹ s⁻¹ | 0.33 | 1.78 | 0.36 | 1.24 | > 3 | 1.06 | 0.31 | 0.68 | 0.35 | 0.4 | 1.46 | 
2 | B2 | 1.42 | 1.39 | 0.41 | 1.39 | 1.65 | 1.52 | 0.0374 nM | 1.41e-05 s⁻¹ | 377000 M⁻¹ s⁻¹ | 0.33 | 1.32 | 0.37 | 1.31 | > 3 | 1.17 | 0.26 | 0.66 | 0.4 | 0.39 | 1.51 | 
3 | B3 |  |  |  |  |  |  |  |  |  |  |  |  |  |  |  |  |  |  |  |  | binding result [18]: no binding (tested: 1 µg/ml)
4 | B4 |  |  |  |  |  |  | 0.118 nM | 6.72e-06 s⁻¹ | 57100 M⁻¹ s⁻¹ |  |  |  |  |  |  |  |  |  |  |  | 
